T1: single chain human CD3ε-26mer-CD3γ (CD3εγ) (human)
T1 construct: also called human CD3εγ
T1 chain: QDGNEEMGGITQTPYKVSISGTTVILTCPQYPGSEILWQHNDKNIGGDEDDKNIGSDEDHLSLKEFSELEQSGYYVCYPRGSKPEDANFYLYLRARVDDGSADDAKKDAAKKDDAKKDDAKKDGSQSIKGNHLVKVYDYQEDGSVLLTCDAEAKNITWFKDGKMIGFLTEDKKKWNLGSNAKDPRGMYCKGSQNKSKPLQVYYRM


Target: T1, single chain human CD3ε-26mer-CD3γ …
Experiment: Biacore, human CD3εγ on chip, Fab in flow through
Method: Binding affinities for the each of the CD3/CD20 TDBs were tested by Biacore or FACS analysis, as described above for the anti-CD3 antibodies. Briefly, for Biacore binding assays, human CD3εγ was immobilized on Biacore Series S CM5 sensor chip using the amine coupling kit from Biacore and CD3/CD20 TDBs or Fab variants thereof were in the flow through. For FACS binding assays, either Bjab cells (for B cell antigens) or Jurkat cells (for CD3 antigen) were incubated with various concentrations of TDB antibodies at 4° C. for 30 minutes, then cells were washed and incubated with 2nd antibody (anti-huIgG-PE; BD Bioscience) for another 15 minutes, before cells were washed again and ready for FACS analysis.

Binder | Kd [nM] | koff [s⁻¹] | kon [M⁻¹ s⁻¹]
40G5c Fab (Fab, V domains shown) VH: EVQLVQSGAEVKKPGASVKVSCKASGYTFTNYYIHWVRQAPGQGLEWIGWIYPGDGNTKYNEKFKGRATLTADTSTSTAYLELSSLRSEDTAVYYCARDSYSNYYFDYWGQGTLVTVSS VL: DIVMTQSPDSLAVSLGERATINCKSSQSLLNSRTRKNYLAWYQQKPGQPPKLLIYWASTRESGVPDRFSGSGSGTDFTLTISSLQAEDVAVYYCTQSFILRTFGQGTKVEIK | 63.2 | 0.0253 | 401000
38E4v3 Fab (Fab, V domains shown) VH: EVQLVQSGAEVKKPGASVKVSCKASGFTFTSYYIHWVRQAPGQGLEWIGWIYPENDNTKYNEKFKDRVTITADTSTSTAYLELSSLRSEDTAVYYCARDGYSRYYFDYWGQGTLVTVSS VL: DIVMTQSPDSLAVSLGERATINCKSSQSLLNSRTRKNYLAWYQQKPGQSPKLLIYWTSTRKSGVPDRFSGSGSGTDFTLTISSLQAEDVAVYYCKQSFALRTFGQGTKVEIK | 3.4 | 0.014 | 4.11e+06
38E4v7 Fab (Fab, V domains shown) VH: EVQLVQSGAEVKKPGASVKVSCKASGFTFTSYYIHWVRQAPGQGLEWIGWIYPENDNTKYNEKFKDRVTITADTSTSTAYLELSSLRSEDTAVYYCARDGYSRYAFDYWGQGTLVTVSS VL: DIVMTQSPDSLAVSLGERATINCKSSQSLLNSRTRKNYLAWYQQKPGQSPKLLIYWTSTRKSGVPDRFSGSGSGTDFTLTISSLQAEDVAVYYCKQSFILRTFGQGTKVEIK | 87 | 0.0246 | 283000
38E4v6 Fab (Fab, V domains shown) VH: EVQLVQSGAEVKKPGASVKVSCKASGFTFTSYYIHWVRQAPGQGLEWIGWIYPENDNTKYNEKFKDRVTITADTSTSTAYLELSSLRSEDTAVYYCARTGYSRYYFDYWGQGTLVTVSS VL: DIVMTQSPDSLAVSLGERATINCKSSQSLLNSRTRKNYLAWYQQKPGQSPKLLIYWTSTRKSGVPDRFSGSGSGTDFTLTISSLQAEDVAVYYCKQSFILRTFGQGTKVEIK | 34.2 | 0.00175 | 51100
38E4v9 Fab (Fab, V domains shown) VH: EVQLVQSGAEVKKPGASVKVSCKASGFTFTSYYIHWVRQAPGQGLEWIGWIYPENDNTKYNEKFKDRVTITADTSTSTAYLELSSLRSEDTAVYYCARDGYSRAYFDYWGQGTLVTVSS VL: DIVMTQSPDSLAVSLGERATINCKSSQSLLNSRTRKNYLAWYQQKPGQSPKLLIYWTSTRKSGVPDRFSGSGSGTDFTLTISSLQAEDVAVYYCKQSFILRTFGQGTKVEIK | 229 | 0.0166 | 72600
38E4v4 Fab (Fab, V domains shown) VH: EVQLVQSGAEVKKPGASVKVSCKASGFTFTSYYIHWVRQAPGQGLEWIGWIYPENDNTKYNEKFKDRVTITADTSTSTAYLELSSLRSEDTAVYYCARDGYSRYYFDYWGQGTLVTVSS VL: DIVMTQSPDSLAVSLGERATINCKSSQSLLNSRTRKNYLAWYQQKPGQSPKLLIYWTSTRKSGVPDRFSGSGSGTDFTLTISSLQAEDVAVYYCKASFILRTFGQGTKVEIK | 10.3 | 0.00336 | 325000
38E4v5 Fab (Fab, V domains shown) VH: EVQLVQSGAEVKKPGASVKVSCKASGFTFTSYYIHWVRQAPGQGLEWIGWIYPENDNTKYNEKFKDRVTITADTSTSTAYLELSSLRSEDTAVYYCARDGYSRYYFDYWGQGTLVTVSS VL: DIVMTQSPDSLAVSLGERATINCKSSQSLLNSRTRKNYLAWYQQKPGQSPKLLIYWTSTRKSGVPDRFSGSGSGTDFTLTISSLQAEDVAVYYCKQSAILRTFGQGTKVEIK | 11 | 0.0225 | 2.05e+06
38E4v2 Fab (Fab, V domains shown) VH: EVQLVQSGAEVKKPGASVKVSCKASGFTFTSYYIHWVRQAPGQGLEWIGWIYPENDNTKYNEKFKDRVTITADTSTSTAYLELSSLRSEDTAVYYCARDAYSRYYFDYWGQGTLVTVSS VL: DIVMTQSPDSLAVSLGERATINCKSSQSLLNSRTRKNYLAWYQQKPGQSPKLLIYWTSTRKSGVPDRFSGSGSGTDFTLTISSLQAEDVAVYYCKQSFILRTFGQGTKVEIK | 1.6 | 0.00359 | 2.29e+06
38E4v8 Fab (Fab, V domains shown) VH: EVQLVQSGAEVKKPGASVKVSCKASGFTFTSYYIHWVRQAPGQGLEWIGWIYPENDNTKYNEKFKDRVTITADTSTSTAYLELSSLRSEDTAVYYCARSGYSRYYFDYWGQGTLVTVSS VL: DIVMTQSPDSLAVSLGERATINCKSSQSLLNSRTRKNYLAWYQQKPGQSPKLLIYWTSTRKSGVPDRFSGSGSGTDFTLTISSLQAEDVAVYYCKQSFILRTFGQGTKVEIK | 180 | 0.202 | 1.12e+06

Target: T1, single chain human CD3ε-26mer-CD3γ …
Experiment: Biacore, human CD3εγ on chip, antibody in flow-through

Binder | Kd [nM] | koff [s⁻¹] | kon [M⁻¹ s⁻¹]
38E4 v2 (antibody, V domains shown) VH: EVQLVQSGAEVKKPGASVKVSCKASGFTFTSYYIHWVRQAPGQGLEWIGWIYPENDNTKYNEKFKDRVTITADTSTSTAYLELSSLRSEDTAVYYCARDAYSRYYFDYWGQGTLVTVSS VL: DIVMTQSPDSLAVSLGERATINCKSSQSLLNSRTRKNYLAWYQQKPGQSPKLLIYWTSTRKSGVPDRFSGSGSGTDFTLTISSLQAEDVAVYYCKQSFILRTFGQGTKVEIK | 1.6 | 0.0036 | 2.29e+06
38E4 v9 (antibody, V domains shown) VH: EVQLVQSGAEVKKPGASVKVSCKASGFTFTSYYIHWVRQAPGQGLEWIGWIYPENDNTKYNEKFKDRVTITADTSTSTAYLELSSLRSEDTAVYYCARDGYSRAYFDYWGQGTLVTVSS VL: DIVMTQSPDSLAVSLGERATINCKSSQSLLNSRTRKNYLAWYQQKPGQSPKLLIYWTSTRKSGVPDRFSGSGSGTDFTLTISSLQAEDVAVYYCKQSFILRTFGQGTKVEIK | 229 | 0.0166 | 72600
38E4 v7 (antibody, V domains shown) VH: EVQLVQSGAEVKKPGASVKVSCKASGFTFTSYYIHWVRQAPGQGLEWIGWIYPENDNTKYNEKFKDRVTITADTSTSTAYLELSSLRSEDTAVYYCARDGYSRYAFDYWGQGTLVTVSS VL: DIVMTQSPDSLAVSLGERATINCKSSQSLLNSRTRKNYLAWYQQKPGQSPKLLIYWTSTRKSGVPDRFSGSGSGTDFTLTISSLQAEDVAVYYCKQSFILRTFGQGTKVEIK | 87 | 0.0246 | 283000
38E4 v5 (antibody, V domains shown) VH: EVQLVQSGAEVKKPGASVKVSCKASGFTFTSYYIHWVRQAPGQGLEWIGWIYPENDNTKYNEKFKDRVTITADTSTSTAYLELSSLRSEDTAVYYCARDGYSRYYFDYWGQGTLVTVSS VL: DIVMTQSPDSLAVSLGERATINCKSSQSLLNSRTRKNYLAWYQQKPGQSPKLLIYWTSTRKSGVPDRFSGSGSGTDFTLTISSLQAEDVAVYYCKQSAILRTFGQGTKVEIK | 11 | 0.0225 | 2.05e+06
38E4 v8 (antibody, V domains shown) VH: EVQLVQSGAEVKKPGASVKVSCKASGFTFTSYYIHWVRQAPGQGLEWIGWIYPENDNTKYNEKFKDRVTITADTSTSTAYLELSSLRSEDTAVYYCARSGYSRYYFDYWGQGTLVTVSS VL: DIVMTQSPDSLAVSLGERATINCKSSQSLLNSRTRKNYLAWYQQKPGQSPKLLIYWTSTRKSGVPDRFSGSGSGTDFTLTISSLQAEDVAVYYCKQSFILRTFGQGTKVEIK | 180 | 0.202 | 1.12e+06
38E4 v6 (antibody, V domains shown) VH: EVQLVQSGAEVKKPGASVKVSCKASGFTFTSYYIHWVRQAPGQGLEWIGWIYPENDNTKYNEKFKDRVTITADTSTSTAYLELSSLRSEDTAVYYCARTGYSRYYFDYWGQGTLVTVSS VL: DIVMTQSPDSLAVSLGERATINCKSSQSLLNSRTRKNYLAWYQQKPGQSPKLLIYWTSTRKSGVPDRFSGSGSGTDFTLTISSLQAEDVAVYYCKQSFILRTFGQGTKVEIK | 34 | 0.0017 | 51100
38E4 v4 (antibody, V domains shown) VH: EVQLVQSGAEVKKPGASVKVSCKASGFTFTSYYIHWVRQAPGQGLEWIGWIYPENDNTKYNEKFKDRVTITADTSTSTAYLELSSLRSEDTAVYYCARDGYSRYYFDYWGQGTLVTVSS VL: DIVMTQSPDSLAVSLGERATINCKSSQSLLNSRTRKNYLAWYQQKPGQSPKLLIYWTSTRKSGVPDRFSGSGSGTDFTLTISSLQAEDVAVYYCKASFILRTFGQGTKVEIK | 10 | 0.0034 | 325000
38E4 v3 (antibody, V domains shown) VH: EVQLVQSGAEVKKPGASVKVSCKASGFTFTSYYIHWVRQAPGQGLEWIGWIYPENDNTKYNEKFKDRVTITADTSTSTAYLELSSLRSEDTAVYYCARDGYSRYYFDYWGQGTLVTVSS VL: DIVMTQSPDSLAVSLGERATINCKSSQSLLNSRTRKNYLAWYQQKPGQSPKLLIYWTSTRKSGVPDRFSGSGSGTDFTLTISSLQAEDVAVYYCKQSFALRTFGQGTKVEIK | 3.4 | 0.014 | 4.11e+06

target: CD3 antigen of Figures 3B and 3C (not named); experiment: kinetic table of IgGs; method and antigen not stated

Binder | Kd [nM] | koff [s⁻¹] | kon [M⁻¹ s⁻¹]
127B3 (antibody, IgG3, V domains shown, mouse hybridoma clone) VH: QVQLQQSGSELVRPGASLKLSCKASGYTFTSYWMHWVRQRPGQGLEWIGNFYPGDLTVNYDEKFKNKVTLAVDTSSSTAFLQLSSLTSEDSAVYYCTRDAYSRYFFDYWGQGTTLTVSS VL: DIVMTQSPSSLAVSAGEKVTMSCKSSQSLLNSRTRKNYLAWYQQKPGQSPKLLIYWASTRESGVPDRFTGSGSGTDFTLTISSVQTEDLAVYYCCQSFILRTFGGGTKLEIK | 0.744 | 9.67e-05 | 130000
